Test results reported in patent publication US20230265170A1.

How the values were obtained:
Assay in all cases: cell-based or functional assay
[1] = target: synthetic SARS-CoV-2 spike 'BA.4 + all' (SARS-CoV-2 (synthetic variant))
[2] = target: SARS-CoV-2 spike (S) protein of the variant printed 'BA.1' in column 9 of Table 32 (SARS-CoV-2)
[3] = target: SARS-CoV-2 Omicron BA.2 spike (S) protein (SARS-CoV-2)
[4] = target: SARS-CoV-2 Omicron BA.3 spike (S) protein (SARS-CoV-2)
[5] = target: SARS-CoV-2 Omicron BA.1 spike (S) protein (SARS-CoV-2)

Sequence of Omi-12 (antibody) (VH): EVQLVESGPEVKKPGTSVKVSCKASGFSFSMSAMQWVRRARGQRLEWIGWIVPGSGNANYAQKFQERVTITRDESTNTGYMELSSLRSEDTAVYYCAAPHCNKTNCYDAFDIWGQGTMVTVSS
Sequence of Omi-12 (antibody) (VL): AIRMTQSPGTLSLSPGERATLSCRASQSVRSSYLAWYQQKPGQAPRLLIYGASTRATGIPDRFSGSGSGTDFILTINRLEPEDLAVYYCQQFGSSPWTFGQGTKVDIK
Sequence of AZD8895 (antibody) (VH): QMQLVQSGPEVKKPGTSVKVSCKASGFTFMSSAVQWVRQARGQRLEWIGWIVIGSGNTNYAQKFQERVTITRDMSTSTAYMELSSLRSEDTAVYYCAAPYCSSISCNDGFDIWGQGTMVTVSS
Sequence of AZD8895 (antibody) (VL): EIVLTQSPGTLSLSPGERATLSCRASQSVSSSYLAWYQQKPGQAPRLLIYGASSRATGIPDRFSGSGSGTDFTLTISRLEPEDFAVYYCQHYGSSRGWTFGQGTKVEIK
Sequence of Omi-32 (antibody) (VH): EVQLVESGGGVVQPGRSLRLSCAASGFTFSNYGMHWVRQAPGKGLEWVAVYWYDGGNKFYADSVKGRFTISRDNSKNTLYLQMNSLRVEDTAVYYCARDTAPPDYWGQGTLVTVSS
Sequence of Omi-32 (antibody) (VL): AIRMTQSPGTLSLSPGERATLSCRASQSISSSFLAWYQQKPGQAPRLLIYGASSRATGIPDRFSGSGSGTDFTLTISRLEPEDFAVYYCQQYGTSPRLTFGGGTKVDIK
Sequence of Omi-18 (antibody) (VH): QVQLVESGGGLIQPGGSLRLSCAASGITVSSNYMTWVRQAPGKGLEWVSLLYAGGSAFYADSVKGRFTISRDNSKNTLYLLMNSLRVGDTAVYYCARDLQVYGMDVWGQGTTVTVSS
Sequence of Omi-18 (antibody) (VL): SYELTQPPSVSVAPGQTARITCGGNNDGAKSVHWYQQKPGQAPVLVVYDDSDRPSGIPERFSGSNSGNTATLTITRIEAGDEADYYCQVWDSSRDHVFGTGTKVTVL
Sequence of Omi-42 (antibody) (VH): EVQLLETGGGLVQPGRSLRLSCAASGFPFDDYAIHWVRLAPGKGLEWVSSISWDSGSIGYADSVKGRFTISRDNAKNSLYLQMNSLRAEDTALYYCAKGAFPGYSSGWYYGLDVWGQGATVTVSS
Sequence of Omi-42 (antibody) (VL): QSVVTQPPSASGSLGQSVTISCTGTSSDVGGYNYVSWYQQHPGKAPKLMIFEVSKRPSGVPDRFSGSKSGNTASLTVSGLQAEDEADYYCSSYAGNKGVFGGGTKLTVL
Sequence of Omi-29 (antibody) (VH): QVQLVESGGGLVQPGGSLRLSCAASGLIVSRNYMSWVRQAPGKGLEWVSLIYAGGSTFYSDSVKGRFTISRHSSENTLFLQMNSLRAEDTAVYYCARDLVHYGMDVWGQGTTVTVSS
Sequence of Omi-29 (antibody) (VL): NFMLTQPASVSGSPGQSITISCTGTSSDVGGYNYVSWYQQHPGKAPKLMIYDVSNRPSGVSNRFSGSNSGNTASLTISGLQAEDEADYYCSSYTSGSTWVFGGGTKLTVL

Substance	IC50 (pseudovirus neutralization) [1] [µg/mL]	IC50 (pseudovirus neutralization) [2] [µg/mL]	IC50, pseudoviral neutralization [3] [µg/mL]	IC50, pseudoviral neutralization [4] [µg/mL]	IC50, pseudoviral neutralization [5] [µg/mL]
ADG20 (antibody)	> 10	> 10	–	–	–
AZD1061 (antibody)	> 10	> 10	–	–	–
AZD7442	> 10	2.73	0.008	0.065	0.232
AZD8895 (antibody)	> 10	5.11	–	–	–
Ly-CoV16 (antibody)	> 10	> 10	–	–	–
Ly-CoV555 (antibody)	> 10	> 10	–	–	–
Ly-CoV1404 (antibody)	> 10	> 10	–	–	–
Omi-03 (antibody)	0.432	0.014	–	–	–
Omi-12 (antibody)	> 10	0.004	–	–	–
Omi-18 (antibody)	3.61	0.005	–	–	–
Omi-29 (antibody)	> 10	0.025	–	–	–
Omi-32 (antibody)	> 10	> 10	–	–	–
Omi-42 (antibody)	0.008	0.01	–	–	–
REGN10933 (antibody)	> 10	> 10	–	–	–
REGN10987 (antibody)	> 10	> 10	–	–	–
S309 (antibody)	0.582	0.436	–	–	–
